Experimental data: the nanobody polyreactivity screen of Harvey et al. (2022)

Assay: yeast display, Sf9 membrane polyspecificity reagent, FACS + sequencing; frameworks hold sequencing errors
Method in brief: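 After 36–48 hours of galactose induction, yeast (Saccharomyces cerevisiae BJ5465) displaying a synthetic nanobody library were stained at 4 °C for 1 hour with 10% biotinylated, detergent-solubilized Sf9 membrane reagent. Streptavidin microbeads enriched the stained cells before FACS sorting into low and high (top ~1%) gates on anti-HA and streptavidin fluorescence. Each clone's polyreactivity label reflects its gate of origin.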

Sequence	polyreactivity (PSR sort gate)
QVQLQESGGGLVQAGGSLRQSCASSGYIFPYNSMGWYRQAPGKERGLVACIAAGTTTNYADSVKGRFTISRDNAKNTVYLQMNSLKPEDAAVYYCAALNAFNTGHWYWGQGTQVTVSS	low polyreactivity
QVQLVESGGPIVQAGGSLRISCAASGRTYAYKTMGWSRQAPGKERELVAGINSSGGSTYYADSVKGRFTISRDNAKNTVYLQMNSLKPEDTAVYDCAADNSPRPYDSWGQGTQVTVSS	high polyreactivity
HVQLVESGGGLVQAGGSLRLSCAASGFTFPLYALGWYRPAPGKEREVVAAIRSSGGSTYYADSVKGRFTISRDKAKNTVNLQMNSLKPEDTAVSYCAKVRSTRRLDTYYYWGQGTQVTVSS	high polyreactivity
QVQLVESGGGLVQAGGSLRLSCAASGSTFGSNAMGWYRQAPGKERELVAAIRWSGGSTYYADSVKGRFTISRDNAKNTVYLQMNSLKPEDTAVYYCAGSFFQYNRRFNYWVQGTQVTVSS	high polyreactivity
QVQLVESGGGLVQAGGSLRLSCAASGRIFYEYASGWYRQAPGKERELVAISTSGGNTYYADSVKGRFTISRDNAKNTVYLQMNSLKPDDTAVYYCAARLQYYPYYYWGQGTQVTVSS	high polyreactivity
QVQLVESGGGLVQAGGSLRLSCAASGITFGVYAMGWYRQAPGKERELVAAISWSVGSTYYADSVKGRFTISRDNAKNTVYLQMNSLKPEDTAVYYCAAYYGVGFDYWGQGTQVTVSS	high polyreactivity
QVQLLESAGGLVQAGGSLRLICAASGSTFYNYAMGWYRQAPGKERELVDSITSSGVSTYYADSVKGRFTISRDIAKNTVYLQMNSLKPDDTAVYYCNADDGYGQVHSISTYEMDYWGQGTQVTVSS	low polyreactivity
QVQLVESGGGLVQAGGSLRLSCAASGSTFYGNAMGWYRQAPGKERELVGAIRWRGGRTYYADSVKGRFTISRDNANNTVYLQMNSLKPEDTAVYYCNALPGVSHTQYDRVGYWGQGTQVTVSS	high polyreactivity
QVQLEESWGGLVQAGGSLRLSCAASGSIYWEYAMGWYTPAPGKEREFVATISARGGRTYYADSVKGRFTISRDNAKNTVYLQMNSLKPEDTAVYYCANVGVFHLRDNYRFDFWGQGTQVTVSS	low polyreactivity
QVQLVESGGGLVQAGGSLRLSCAASGFIIADYTMGWYRQAPGKERELVAAITRSGDSTYYADSVKGRFTISRDNAKNTVYLQMNSLKPEDTAVYYCNAVNDWYYAYYGVTSFRSYDYWGQGTQVTVSS	low polyreactivity
QVQLVESGGGLVQAGGSLRLSCAAYGRTFWSYAMGWYRQAPGKERELVADISLDDGTTYYADSVKGRFTISRDNAKNTVYLHMNSLKPEDTAVYYCAAERDQGDDGYGPDYGYWGQGTQVTVSS	high polyreactivity
QVQLVESGGGLVQAGGSLRLSCAASGSTFPYVMGWYRQAPGKERELVAAISQSTGGITNYADSVKGRFTISRDNAKNTVYLQMNSLKPEDTAVYYCAATSWRYQQSTRYKGRRYYSWGQGSQVTVSS	high polyreactivity
QVQLVESGGGLVQAGGSLRLSCAASGFIFYRYAMGWYRQAPGKERELVAAISSGGGRTYYADSVKGRFTISRDNAKNTVYLQMNSLKPEDTAVYYCAKGYFWSSYVSSRYGSWGQGTQVTVSS	high polyreactivity
QVQLVESGGGLVQAGGRLRLSCAASGSTFKIYAMGWYRQAPGKERELVARITGRGGSTYYADSVKGRFTISRDNAKNTVYLQLNSLKPEDSAVYYCAARVYTYYYDLHKRFYWGHGTQVTVSS	high polyreactivity
QVQRVESGGGLVQAGGSLRLSCAASGSTFYDNTMGWYRPAPGKERELVAAITGTGGNTYYADSVKGRFTISRDNAKNTDYLQMNSLKPEDTAVYYWNRVPVYYYRYGYWGQGTQVTVSS	low polyreactivity
QVHLVESGGGLVQAGGSLRLSCAATGRTFAGYAMGWYRQAPGKERQLVAAITNGGSTKYADSVKGRFTISRDNAKNSVYLQMNSLKPEDTAVYYCKARKRFYSGNTLMYYWGQGTQVTVSS	high polyreactivity
QVQLVESGGGLVEAGGSLRLSCAASGFTFRQYAMGWYRQAPGKEWELVAAISSGGSTYYADSVKGRFTISRDNAKNTDYVQMNSLKPEDTAVYYCAATHWAYSRVPYDYWGQGTQVTVSS	high polyreactivity
QVQLVESGGGLVQAGGSLRLSCAASGFTFDFYVMGWYRQAPGKERELVAAITSGGGTYYADSVKGRFTISRDNAKNTVYLQMNSLKPEDTAVYYCAVSVTTVSTYDYWGQGTQVTVSS	low polyreactivity
QVQLVESGGGLVQAGASLRLSCAASGSTFLLNAMGWYRQAPGKERELVAAITSSGGTNYADSVKGRFTISRDNAKNTVYLQMNSLKPEDTAVYYCNTRYSPGYQGSEVDYWGQGTQVTVSS	low polyreactivity
QVQLVESGGGLVQAGGSLRLSCAASGSIFKWYAMGWYRQAPGKERALVATISSSGSSTYYADSVKGRLTISRDNAKNTVYLQMNSLKPEDTAVYYCATTYGWRYPAMDYWGQGTQVTVSS	high polyreactivity
QVQLVESGGGLVQAGGSLRLSCAASGFTFASNDMGWYIPAPGKERELVSAITKGGGRTYYADSVKGRFTISRDNAKNTVYLQMNSLKPEDTAVYYCAASHDKRRQYFVGQSAFDYWGQGTQVTVSS	low polyreactivity
QVQLVESGGGLVQARGSLRLSCAPSGFTFEAYAMGWYRQAPGKERELVAAISSSDTTSYADSVKGRFTISRDNAKNTVYLQMNSLKREDTAVYYCAADDWYTGYDYWGQGTQVTVSS	high polyreactivity

Sequence	polyreactivity (PSR sort gate)
QGQLVESGGGLVQEGGSLRLSCAASGRIFQNYAMGWYRQAPGKERELVATIDIGGSTKYADSVKGRFTISRDNAKNTVYLQMNSLKPEDTAVYYCNVPAFFYGYYRFDYWGQGTQVTVSS	high polyreactivity
QVQLVESGGGLVQAGGSLRLSCAASGGTFGSYAMGWYRQAPGKERELVAAITGSGGRTYYADSVKGRFTISRDNAKNTVYLQMNSLKPEDTAVYYCNATRGIGPPFYYWGQGTKVTVSS	high polyreactivity
QVQLVESGGGLVQAGGSLRLSCAASGRIFGYYTMGWYRQAPGKEREFVASISTTGGSTYYADSVKGRFTISRDNAKNTVYLQMNSLKPEDTAVYYCNVYYWYGSRGSYALGKEYDYWGQGTQVTVSS	high polyreactivity
QVQLVESVGGLVQAGGSLRLSCAASGSTCQRYAIGWYRQAPGKERELVAAISDGGSTNYADSVKGRFTISRDNAKNTVYLQMNSLKPEDTAVSYCAAKYLSRYDYWGQGTQVTVSS	low polyreactivity
QVQLVESGGGLVQAGGSLRLSCAASGLTFAYNTMGWYRQAPGKEREFVASISSSGGNTYYADSVKGRFTISRDNAKNTVYLQMNSLKPEDTAVYYCAAKKKYHYVASYKRFEYWGQVTQVTVSS	low polyreactivity
QVQLVESGGGLVQAGGSLRLSCAASGRTFRYYDMGRYRQAPGKERELVAAISSSGDRTYYADSVKGRFTISRDNAKNTVYLQMNSLKPEDTAVYYCAADRGARGDYWGQGTQVTVSS	high polyreactivity
QVQLVESGGVLFQAGGSLRLSCAASGRISYANAIGWYRQAPGKESEMVASITYSAGSTYADSVKGRFTISRDNAKNTVYLQMISLKPEDTAVYYCAKRPCQHYRSYLMDYWGQGTQVNVSS	low polyreactivity
QVQLVESGGGLVQAGGSLRLSCAASGSTFHSNAMGGYRQAPGKERELVAAISSGGSTNYADSVKGRFTISRDNAKNTVYLQMNSLKPEDTAVYYCAAVWRYLGYTAMDYWGQGTQVTVSS	low polyreactivity
QVQLVESGGGLVQAGGSLRLSCAASGRTFAFYAMGWYRQAPGKERELVAVITKSGGITYYADSVKGRFTISRDNAKNTVYLQMKSLKPEDTAVYYCAADYRYTPNYLYYYWGQGTQVTVSS	low polyreactivity
QVQLVESGGGLVQAGGSLRLSCAASGLTIFVYAMGWSRQAPGKERELVAAISDSGGSTYYADSVKGRFTISRDNAKNTVYLQMNSLKPEDTAVYYCAADYRGIYSGIWGDYWGQGTQVTVSS	low polyreactivity
QVQHVESGGGIDQAGGSLRLSCAASGSTSVQYAMGWYRQATGKERELVAAISLSVGSTYYADSVKGRFTISRDNAKITVYLQMNCLKPEDTAVYYCASGYPPEDPEDYWGQGTQVTVSS	low polyreactivity
QVQLVESGGGLVQAGGSLRLSCAASGYILDVYAMGWYRQAHGKEWELVAVITWRTDSTYYADSVKGRFTISRDNAKNTVYLQMNSLKPEDTAVYYCAKVLRLSKYRYYYWGQGTQVTVSS	high polyreactivity
QVQLVESVGGLVQAGGSLRLSCAASGRIFRWNAMGWYRQAPGKEREFVAAISWSGGSTYYADSVKGRFTISRDNAKNTFYLQMNSLKPEDTAVYYCNKVGYYCVGTSQEFDYWGQGTQVTVSS	high polyreactivity
QVQLVESGGGLVQAGGSLRLSCAASGNIFYINAMGWYRQAPGKERELVAAISSGGRTNYADSVKGRFTISRDNAKNTVYLQMNSLNPEDTEVYYCNADGWYAWRYYAPGGYDYWGQGTQVTVSS	low polyreactivity
QVQLVESGGGLVQAGGSLRLSCAASGFIFYDYDMGWYRQSPGKERELVAAISSGGSTNYADSVKGRFTISRDNAKNTVYLQMNSLIPEDTAVYYCATDVGVERRQVDRYIYDYWGQGTQVTVSS	low polyreactivity
QVQLVESGGGLVQAGGSLRLSCAASGRTFYKYTMGWYRQAPGKERELVAAITTSGGGTYYADSVKGRFTISRDNAKNTVYIQMNSLKPEDTAVYYCAARYRELRTEYYYWGQGTQVTVSA	high polyreactivity
QVQLVESGGVLVQAGGSLRLSCAASGITFIGYAMGWYRQAPGKERELVASITSGANTNYADSVKGRFTISRDNAKNTVYLQMNSVKAEDTAVYYCAAPEHGTYANILGEPLDYWGQGTQVTVSS	low polyreactivity
QVQLVESGGGLVQAGGSLRLSCAASGSIFQGYAMGWYRQAPGKERELVAAITSSGGSTYYADSVKGRFTISRDNAKNTVYLQMNSLKPEDTAVYYCAARGYSHVASRLYYYWGQGTQVTVSS	high polyreactivity
QVQLVESGGGIVQAGGSLRLSCASSGLIFKFYAMGWYRQAPGKERELVASIRRSGDNTYYADSVKRRFTISRDNAKNTVYLQMKSLKPEDTAVYYCAAELLYDYVEYYYWGQGTQVTVAS	high polyreactivity
QVQLVESGGGLVQAGGSLRLSCAASGSTFDIYAMGWYRQAPGKERELVAVISGGDGSTYYADSVKGRFTISRDNAKNTVYLQMNSLKPEDTAVYYCAADYISPGYCDGEYDCWGQGTQVTVSS	low polyreactivity
QVQLVESGGGLVQAGGSLRLSCAASGIIFYLYAMGWYRQAPGKERELVAAISRRGVSTYYADSVKGRFTISRDNAKNTVYLQMNSLKPEDTAVYYCAAAGFGYTGEEYWGQGTQVTVSS	high polyreactivity
